Patent publication EP1379283B1, “IDENTIFICATION OF TARGET-SPECIFIC FOLDING SITES IN PEPTIDES AND PROTEINS” (Palatin Technologies, Inc., priority 2000, dated 2002)

Assays:
[1] = molecular target: uPA receptor (urokinase-type plasminogen activator receptor) on U937 cells (UniProt Q03405); test: competition receptor-binding assay on U937 cells, ATF as competing ligand, metallopeptide at 1 µM
[2] = molecular target: vasopressin-1 receptor of rat liver cell membranes (rat) (UniProt P30560); test: competition with 3H-vasopressin-1 antagonist on rat liver membranes, metallopeptide at 1 µM
Sequence of vasopressin-1 receptor of rat liver cell membranes (rat) (P30560 whole entry): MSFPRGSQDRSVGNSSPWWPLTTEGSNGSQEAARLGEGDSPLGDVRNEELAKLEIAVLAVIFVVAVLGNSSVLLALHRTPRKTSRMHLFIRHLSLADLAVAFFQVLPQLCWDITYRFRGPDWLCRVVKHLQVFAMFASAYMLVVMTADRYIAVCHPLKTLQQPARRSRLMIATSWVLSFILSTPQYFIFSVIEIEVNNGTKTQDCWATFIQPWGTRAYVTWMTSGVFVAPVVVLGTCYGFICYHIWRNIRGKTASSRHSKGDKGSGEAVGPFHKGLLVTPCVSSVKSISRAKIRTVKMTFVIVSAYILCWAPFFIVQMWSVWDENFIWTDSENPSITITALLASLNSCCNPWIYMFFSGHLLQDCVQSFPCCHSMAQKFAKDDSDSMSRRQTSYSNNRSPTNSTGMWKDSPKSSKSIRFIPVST

[3] = molecular target: oxytocin receptor of rat uterus cell membranes (rat) (UniProt P70536); test: competition with 3H-oxytocin on rat uterus membranes, metallopeptide at 1 µM
Sequence of oxytocin receptor of rat uterus cell membranes (rat) (P70536 whole entry): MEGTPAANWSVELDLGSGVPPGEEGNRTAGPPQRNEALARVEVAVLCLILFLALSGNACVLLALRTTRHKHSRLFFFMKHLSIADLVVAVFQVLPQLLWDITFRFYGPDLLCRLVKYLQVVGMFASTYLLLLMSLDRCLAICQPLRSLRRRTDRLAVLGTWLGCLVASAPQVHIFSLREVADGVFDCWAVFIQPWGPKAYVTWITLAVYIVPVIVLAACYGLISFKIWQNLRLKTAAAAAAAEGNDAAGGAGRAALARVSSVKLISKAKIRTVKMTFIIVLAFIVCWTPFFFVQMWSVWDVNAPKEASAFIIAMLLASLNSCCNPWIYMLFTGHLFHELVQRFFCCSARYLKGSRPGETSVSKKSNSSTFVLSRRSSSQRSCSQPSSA

[4] = molecular target: angiotensin-II receptor of human neuroblastoma cells (KAN-TS) (human); test: competition with 125I-Tyr4,Sar1,Ile8-angiotensin II on KAN-TS human neuroblastoma cell membranes, metallopeptide at 1 µM
Sequence of angiotensin-II receptor of human neuroblastoma cells (KAN-TS) (human) (P30556 whole entry): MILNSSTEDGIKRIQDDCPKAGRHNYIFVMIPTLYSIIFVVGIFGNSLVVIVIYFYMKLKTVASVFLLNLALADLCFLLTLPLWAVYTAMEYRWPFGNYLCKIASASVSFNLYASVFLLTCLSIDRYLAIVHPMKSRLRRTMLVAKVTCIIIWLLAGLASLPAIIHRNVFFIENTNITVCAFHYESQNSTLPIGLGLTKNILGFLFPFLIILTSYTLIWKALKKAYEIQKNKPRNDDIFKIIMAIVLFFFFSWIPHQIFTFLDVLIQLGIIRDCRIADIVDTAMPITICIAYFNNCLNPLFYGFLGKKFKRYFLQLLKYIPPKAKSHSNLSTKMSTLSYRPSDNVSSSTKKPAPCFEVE

Sequence of uPA receptor (urokinase-type plasminogen activator receptor) on U937 cells (Q03405 23-305): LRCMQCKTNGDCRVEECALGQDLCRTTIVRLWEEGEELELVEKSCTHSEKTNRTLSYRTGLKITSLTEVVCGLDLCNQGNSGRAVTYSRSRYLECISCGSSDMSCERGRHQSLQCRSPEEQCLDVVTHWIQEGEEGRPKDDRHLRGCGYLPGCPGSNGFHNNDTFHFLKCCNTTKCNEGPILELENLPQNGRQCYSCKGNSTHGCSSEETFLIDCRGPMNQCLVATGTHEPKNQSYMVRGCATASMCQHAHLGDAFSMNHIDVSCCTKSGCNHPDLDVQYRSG

Substance	% Inhibition at 1 µM [1] [%]	% Inhibition at 1 µM [2] [%]	% Inhibition at 1 µM [3] [%]	also measured
Re-complexed Ac-Val-Ser-Asn-Cys-Lys-Tyr-Phe-Ser-Asn-Ile-His-Trp-NH2 (SEQ ID NO:5) (peptide)	0	–	–	–
Re-complexed Ac-Val-Ser-Asn-Lys-Tyr-Phe-Cys-Ser-Asn-Ile-His-Trp-NH2 (SEQ ID NO:8) (peptide)	0	–	–	–
Re-complexed Ac-Val-Ser-Asn-Lys-Tyr-Phe-Ser-Asn-Cys-Ile-His-Trp-NH2 (SEQ ID NO:10) (peptide)	32	–	–	–
Re-complexed Ac-Val-Ser-Asn-Lys-Tyr-Phe-Ser-Asn-Ile-His-Cys-Trp-NH2 (SEQ ID NO:3) (peptide)	106	–	–	–
Re-complexed Ac-Val-Ser-Asn-Lys-Tyr-Phe-Ser-Asn-Ile-His-Trp-Cys-NH2 (SEQ ID NO:12) (peptide)	0	–	–	–
Re-complexed Ac-Val-Ser-Asn-Lys-Tyr-Phe-Ser-Cys-Asn-Ile-His-Trp-NH2 (SEQ ID NO:9) (peptide)	35	–	–	–
Re-complexed Ac-Val-Ser-Cys-Asn-Lys-Tyr-Phe-Ser-Asn-Ile-His-Trp-NH2 (SEQ ID NO:4) (peptide)	0	–	–	–
Re-complexed Ala-Tyr-Cys-Ile-Gln-Asn-Ala-Pro-Leu-Gly-NH2 (SEQ ID NO:158) (peptide)	–	1	6	–
Re-complexed Ala-Tyr-Ile-Gln-Asn-Ala-Ala-Cys-Leu-Gly-NH2 (SEQ ID NO:152) (peptide)	–	1	0	–
Re-complexed Ala-Tyr-Ile-Gln-Asn-Ala-Ala-Leu-Cys-Gly-NH2 (SEQ ID NO:151) (peptide)	–	0	0	–
Re-complexed Ala-Tyr-Ile-Gln-Asn-Ala-Ala-Leu-Gly-Cys-NH2 (SEQ ID NO:150) (peptide)	–	0	0	–
Re-complexed Ala-Tyr-Ile-Gln-Asn-Ala-Cys-Ala-Leu-Gly-NH2 (SEQ ID NO:154) (peptide)	–	0	31	–
Re-complexed Ala-Tyr-Ile-Gln-Asn-Ala-Cys-Pro-Leu-Gly-NH2 (SEQ ID NO:153) (peptide)	–	0	2	–
Re-complexed Ala-Tyr-Ile-Gln-Asn-Ala-Pro-Leu-Gly-Cys-NH2 (SEQ ID NO:149) (peptide)	–	0	6	–
Re-complexed Ala-Tyr-Ile-Gln-Asn-Cys-Ala-Pro-Leu-Gly-NH2 (SEQ ID NO:155) (peptide)	–	0	42	–
Re-complexed Sar-Arg-Cys-Val-Tyr-Ile-His-Pro-Thr (SEQ ID NO:165) (peptide)	–	–	–	% Inhibition at 1 µM [4]: 1%
Re-complexed Sar-Arg-Val-Cys-Tyr-Ile-His-Pro-Thr (SEQ ID NO:164) (peptide)	–	–	–	% Inhibition at 1 µM [4]: 1%
Re-complexed Sar-Arg-Val-Tyr-Cys-Ile-His-Pro-Thr (SEQ ID NO:163) (peptide)	–	–	–	% Inhibition at 1 µM [4]: 12%
Re-complexed Sar-Arg-Val-Tyr-Ile-Cys-His-Pro-Thr (SEQ ID NO:162) (peptide)	–	–	–	% Inhibition at 1 µM [4]: 20%
Re-complexed Sar-Arg-Val-Tyr-Ile-His-Cys-Gly-Thr (SEQ ID NO:166) (peptide)	–	–	–	% Inhibition at 1 µM [4]: 11%
Re-complexed Sar-Arg-Val-Tyr-Ile-His-Cys-Pro-Thr (SEQ ID NO:161) (peptide)	–	–	–	% Inhibition at 1 µM [4]: 60%
Re-complexed Sar-Arg-Val-Tyr-Ile-His-Gly-Cys-Thr (SEQ ID NO:160) (peptide)	–	–	–	% Inhibition at 1 µM [4]: 5%

Continued, in another order:

% Inhibition at 1 µM [1] [%]	% Inhibition at 1 µM [2] [%]	% Inhibition at 1 µM [3] [%]	Substance	also measured
13	–	–	Re-complexed Ac-Val-Ser-Asn-Lys-Cys-Tyr-Phe-Ser-Asn-Ile-His-Trp-NH2 (SEQ ID NO:6) (peptide)	–
18	–	–	Re-complexed Ac-Val-Ser-Asn-Lys-Tyr-Cys-Phe-Ser-Asn-Ile-His-Trp-NH2 (SEQ ID NO:7) (peptide)	–
0	–	–	Re-complexed Ac-Val-Ser-Asn-Lys-Tyr-Phe-Ser-Asn-Ile-Cys-His-Trp-NH2 (SEQ ID NO:11) (peptide)	–
–	0	0	Re-complexed Ala-Tyr-Ile-Cys-Gln-Asn-Ala-Pro-Leu-Gly-NH2 (SEQ ID NO:157) (peptide)	–
–	0	18	Re-complexed Ala-Tyr-Ile-Gln-Cys-Asn-Ala-Pro-Leu-Gly-NH2 (SEQ ID NO:156) (peptide)	–
